Molecular target: GST-RhHB1 (Rosa hybrida, UniProt A0A096YDU1 1-243)
Assay: EMSA; 25 pM probe (so in the source), 3 ug protein; signal weakened by 10x and 100x unlabeled probe; Pierce EMSA kit, per manufacturer's instructions; buffer, salt, pH and temperature not given
Conditions: protein: recombinant; tags: GST (N-terminal, pGEX-2T); chain copies: 2; label: biotin (5' of S3); blunt

GST-RhHB1, sequence (A0A096YDU1 entry or part of it): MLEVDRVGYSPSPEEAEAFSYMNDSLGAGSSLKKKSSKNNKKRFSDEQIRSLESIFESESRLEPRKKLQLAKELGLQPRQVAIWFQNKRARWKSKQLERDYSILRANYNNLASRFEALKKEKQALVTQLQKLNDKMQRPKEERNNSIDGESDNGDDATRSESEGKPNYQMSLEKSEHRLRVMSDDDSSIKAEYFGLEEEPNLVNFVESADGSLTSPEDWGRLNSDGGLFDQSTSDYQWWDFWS

B1: RhLOX4 promoter probe (-1270 to -1303) (dsDNA)
DNA 1: AAGAGAATATTTTGAAATAATATTAGGAGTCTCT
DNA 2: AGAGACTCCTAATATTATTTCAAAATATTCTCTT
binding result: binds
